Reference: patent EP4176934A1, “LIPIDIZED COCAINE- AND AMPHETAMINE-REGULATED TRANSCRIPT PEPTIDE ANALOGUES AS ANTI-OBESITY AND NEUROPROTECTIVE AGENTS” (Ustav organicke chemie a biochemie AV CR, v.v.i., priority 2021, dated 2023)
Bridge positions count the residues as written; N and C are the ends. Square brackets hold non-standard residues; d marks the D form. Ends that are not written are not given here. * marks the point of attachment. Palmitoyl = CCCCCCCCCCCCCCCC(=O)*; Myristoyl = CCCCCCCCCCCCCC(=O)*; Nle = CCCC[C@H](N)C(=O)O; Octanoyl = CCCCCCCC(=O)*

Legend:
[1] = target: CARTp binding site in PC12 cells (prospective CARTp receptor) (rat); experiment: displacement of 125I-CART(61-102) from PC12 cells, relative to CART(61-102)
[2] = target: CARTp binding site in PC12 cells (prospective CARTp receptor) (rat); experiment: displacement of 125I-CART(61-102) from PC12 cells, Cheng-Prusoff
[3] = target: CARTp binding site in PC12 cells (prospective CARTp receptor) (rat); experiment: displacement of 125I-CART(61-102) from PC12 cells; range told of the group, this end tied by Table 2
[4] = Stability in rat plasma measured by ELISA; type: in vitro ADME; conditions: 100 ng.ml^-1, 37 °C, 96 hours, EDTA plasma, compared to CART 2S-S
Protocol: Blank rat pooled EDTA plasma was conditioned in an incubator at 37 °C. Plasma was preheated to reach required temperature and then it was spiked with a solution of CART 2S-S and palm-CART analogues (dissolved in aqueous 0.5% formic acid) to a final concentration 100 ng.ml^-1. Duplicates were taken for ELISA analysis, sampling volume was 50 µL. Samples were immediately transferred to -20 °C.
ELISA kit for CARTp (MyBioSource, San Diego, CA, USA) was used in accordance with manufacturer's directions. In addition, external calibration using palm-CART was used. The rat plasma was applied for the calibration to comprise specific influence of different matrices on the immunoanalysis output.

[5] = target: CARTp binding site in PC12 cells (prospective CARTp receptor) (rat); experiment: radioligand binding on PC12 cells, 10^-10 M tracer
[6] = target: CARTp binding site in PC12 cells (prospective CARTp receptor) (rat); experiment: Kd of the radioligand on PC12 cells, used in the Cheng-Prusoff equation; how it was measured is not stated

Palm-CART [74-94, 86-101] (peptide)
% binding CART(61-102) [1]: 0.85%
Ki [2]: 1090 nM
Ki [3]: 1000 nM

Palmitoyl-KYGQVP[Nle]ADAGEQCAVRKGARIGKLADCPRGTSCNSFLLKCL (disulfide 14-34, 28-41) [Palm-CART]
stability in rat plasma [4]: higher stability

Octanoyl-KYGQVP[Nle]ADAGEQCAVRKGARIGKLADCPRGTSCNSFLLKCL (disulfide 14-34, 28-41) [Oct-CART]
% binding CART(61-102) [1]: 12%
Ki [2]: 76.1 nM

KYGQVPMCDAGEQCAVRKGARIGKLCDCPRGTSCNSFLLKCL (disulfide 14-34, 8-26, 28-41) [CART(61-102)]
% binding CART(61-102) [1]: 100%
Ki [2]: 9.33 nM

B1: 125I-CART(61-102) (peptide)
peptide: KYGQVPMCDAGEQCAVRKGARIGKLCDCPRGTSCNSFLLKCL
modifications: disulfide 14-34, 8-26, 28-41; ends not checked; also: monoiodinated with 125I, residue not given here
total binding, % of the radioactivity added [5]: 3 to 8%
Kd [6]: 1.49 nM

Palmitoyl-KYGQVP[Nle]ADAGEQCAVRKGARIGKLADCPRGTSCNSFLLKCL (disulfide 14-34, 28-41) [Palm-CART]
% binding CART(61-102) [1]: 652%
Ki [2]: 1.43 nM
Ki [3]: 1 nM

KYGQVP[Nle]ADAGEQCAVRKGARIGKLADCPRGTSCNSFLLKCL (disulfide 14-34, 28-41) [CART 2S-S]
% binding CART(61-102) [1]: 3.5%
Ki [2]: 261 nM

Myristoyl-KYGQVP[Nle]ADAGEQCAVRKGARIGKLADCPRGTSCNSFLLKCL (disulfide 14-34, 28-41) [Myr-CART]
% binding CART(61-102) [1]: 78%
Ki [2]: 12.1 nM
